Measured values: patent US12006368 (SURROZEN OPERATING, dated 2024)
Residue numbers refer to the chain shown, from its start. Blank lines part the entries; values can stand above or below the binder they belong to.

Key:
[1] = molecular target: Fzd2 cysteine rich domain (CRD), C-terminally biotinylated (human, UniProt Q14332 24-155); experiment: BLI
Experimental: (§1) Binding kinetics of antibody fragments to a variety of Fzd cysteine rich domain (CRD) protein targets (Fzd1, Fzd2, Fzd3, Fzd4, Fzd5, Fzd6, Fzd7, Fzd8, Fzd9 and/or Fzd10 CRDs) was determined by bio-layer interferometry (BLI) using Octet Red 96 (PALL ForteBio, Fremont, CA) instruments at 30° C., 1000 rpm with streptavidin (SA) biosensors. C-terminal biotinylated Fzd CRD recombinant protein was diluted to 20 nM in the running buffer (PBS, 0.05% Tween-20, 0.5% BSA, pH 7.2) and captured to the SA biosensor until coupling length reached 0.2 nm. Following capture of the Fzd CRD, the SA biosensor with captured biotinylated-Fzd CRD was dipped into wells containing the relevant antibody fragment at […] (0, 1.37, 4.12, 12.4, 37, 111.1, 333.3, 1000 nM) in running buffer, plus a well with only running buffer as a reference channel. […] was determined by global fitting, 1:1 binding model according to manufacturer recommended settings.
(§2) Table 1B provides clone IDs, the sequence identifier number of the antibody heavy chain fragment and/or light chain fragment, if present, for illustrative clones. In certain embodiments, the Fzd binding domain is an Fab or was derived from an Fab, so the heavy chain of Table 1B includes VH and CH1 sequence, but not CH2 or CH3 sequences. In certain embodiments, the Fzd binding domain is a VHH or sdAb® or was derived from a VHH or sdAb, so Table 1B includes the VHH domain. […] The Kd values were determined by BLI as described above. Blank entries denote that the binding to the specific Fzd receptor has not yet been determined. The entry of "n.b." indicates no binding.

[2] = molecular target: Fzd1 cysteine rich domain (CRD), C-terminally biotinylated (human, UniProt Q9UP38 101-230); experiment: BLI
Experimental: as §1, §2

B1: 014S-B06 (Fab, V domains shown)
VH: EVQLVQSGGGLVKPGGSLRLSCAASGFTFSSYSMNWVRQAPGKGLEWVSYIENDGSITTYADSVKGRFTISRDDSKNTLYLQMNSLKTEDTAVYYCARAPYYYGSGSLFRLDYWGQGTLVTVSS
VL: not shown
binding result [1]: no binding (tested: 1000 nM) | binding result [2]: no binding (tested: 1000 nM)

B2: 004S-B08 (Fab, V domains shown)
VH: QVQLVQSGAEVKKPGASVKVSCKASGYTFTNNFMHWVRQAPGQGLEWMGRINPNSGGTNYAQKFQGRVTMTRDTSTSTVYMELSSLRSEDTAVYYCASQNYYGSGSYPGFDYWGQGTLVNVSS
VL: not shown
binding result [1]: no binding (tested: 1000 nM) | binding result [2]: no binding (tested: 1000 nM)

B3: 014S-G06 (Fab, V domains shown)
VH: EVQLVESGGGLVKPGGSLRLSCAASGFTFSSYAMHWVRQAPGKGLEWVSAIGAGGGTYYADSVKGRFTISRDDSKNTLYLQMNSLKTEDTAVYYCARDAYNWFDPWGQGTLVTVSS
VL: not shown
binding result [1]: no binding (tested: 1000 nM) | binding result [2]: no binding (tested: 1000 nM)

B4: 005S-D08 (Fab, V domains shown)
VH: EVQLVESGGGLVQPGGSLRLSCAASGFAFSSHWMHWVRQAPGKGLEWVSAIDGSGGSTYYADSVKGRFTISRDNSKNTLYLQMNSLRAEDTAVYYCARDRQLGWAHWYFDLWGRGTLVTVSS
VL: not shown
binding result [1]: no binding (tested: 1000 nM) | binding result [2]: no binding (tested: 1000 nM)

B5: 017S-B09 (VHH)
VHH: AVQQVESGGGLVQPGGSLRLSCAASGFTLDYYAISWFRQAPGKKRELVADITSGGSTNYADSVKGRFTISRDNAKNTIYLQMNSLKPEDTAVYFCNAVTYNGYTIWGQGTQVTVSS
binding result [1]: no binding (tested: 1000 nM) | binding result [2]: no binding (tested: 1000 nM)

B7: 004S-A12 (Fab, V domains shown)
VH: QVQLVQSGAEVKKPGASVKVSCKASGYTFTNNFMHWVRQAPGQGLEWMGRINPNSGGTNYAQKFQGRVTMTRDTSTSTVYMELSSLRSEDTAVYYCARGQGYSSGWYRGDAFDIWGQGTTVTVSS
VL: not shown
binding result [1]: no binding (tested: 1000 nM) | binding result [2]: no binding (tested: 1000 nM)

B8: 004S-A11 (Fab, V domains shown)
VH: QVQLVQSGAEVKKPGSSVKVSCKASGGTFSSYAISWVRQAPGQGLEWMGRIIPILGIANYAQKFQGRVTITADESTSTAYMELSSLRSEDTAVYYCARESVNNYYYMDVWGKGTTVTVSS
VL: not shown
binding result [1]: no binding (tested: 1000 nM) | binding result [2]: no binding (tested: 1000 nM)

B10: 003S-D10 (Fab, V domains shown)
VH: EVQLVESGGGLVKPGGSLRLSCAASGFNFGIYSMTWVRQAPGKGLEWISYISGDSGYTNYADSVKGRFTISRDDSKNTLYLQMNSLKTEDTAVYYCARVGPGGWFDPWGQGTLVTVSS
VL: DIQMTQSPSSLSASVGDRVTITCRASQGISSYLAWYQQKPGKAPKLLIYAASNLLGGVPSRFSGSGSGTDFTLTISSLQPEDFATYYCQQTYSTPWTFGQGTKVEIKR
binding result [1]: no binding (tested: 1000 nM) | binding result [2]: no binding (tested: 1000 nM)

B11: 005S-D11 (Fab, V domains shown)
VH: QVQLVQSGAEVKKPGASVKVSCKASGYTFTNNFMHWVRQAPGQGLEWMGWINPNSGDTKFAPKFQGRVTMTRDTSTSTVYMELSSLRSEDTAVYYCAREANYDILTGYIRPDAFDIWGQGTTVTVSS
VL: EIVLTQSPATLSVSPGERATLSCRASQSLRSKLAWYQQKPGQAPRLLIYGASTRATGIPARFSGSGSGTEFTLTISSLQSEDFAVYYCQQYANSPWTFGPGTKVDIKR
binding result [1]: no binding (tested: 1000 nM) | binding result [2]: no binding (tested: 1000 nM)

B12: 014S-A07 (Fab, V domains shown)
VH: EVQLVESGGGLVKPGGSLRLSCAASGFTFSNAQMSWVRQAPGKGLEWVSAIGTGGGTYYADSVKGRFTISRDDSKNTLYLQMNSLKTEDTAVYYCAREGSYYDWYFDLWGRGTLVTVSS
VL: EIVLTQSPATLSVSPGERATLSCRASQNIGSRLAWYQQKPGQAPRLLIYGASNRASGIPARFSGSGSGTEFTLTISSLQSEDFAVYYCQQYNHWPPLFTFGPGTKVDIKR
binding result [1]: no binding (tested: 1000 nM) | binding result [2]: no binding (tested: 1000 nM)

B15: 005S-A07 (Fab, V domains shown)
VH: QVQLVQSGAEVKKPGSSVKVSCKASGFTFTGSAVQWVRQAPGQGLEWVGGILPIYGTTKYAQKFQGRVTITADESTSTAYMELSSLRSEDTAVYYCARGARLYGFDYWGQGTLVTVSS
VL: EIVLTQSPATLSVSPGERATLSCRASQSVSRNLAWYQQKPGQAPRLLIYGASTRATGIPARFSGSGSGTEFTLTISSLQSEDFAVYYCQQRSNWPITFGQGTRLEIKR
binding result [1]: no binding (tested: 1000 nM) | binding result [2]: no binding (tested: 1000 nM)

B19: 014S-B04 (Fab, V domains shown)
VH: QVQLVQSGAEVKKPGASVKVSCKASGYIFTDYYMHWVRQAPGQGLEWMGWMNPNSGNTGYAQKFQGRVTMTRDTSTSTVYMELSSLRSEDTAVYYCARGGSRYDFWSGHWYFDLWGRGTLVTVSS
VL: B10 VL with S31N, N53S, L55Q, G56S, T91S, W96F
binding result [1]: no binding (tested: 1000 nM) | binding result [2]: no binding (tested: 1000 nM)

More lines, now with the values ahead:

binding result [1]: no binding (tested: 1000 nM) | binding result [2]: no binding (tested: 1000 nM)
B6: 005S-H10 (Fab, V domains shown)
VH: QVQLVQSGAEVKKPGSSVKVSCKASGGAFSTSSISWVRQAPGQGLEWVGRIIPVLGTANYAQKFQGRVTITADESTSTAYMELSSLRSEDTAVYYCAKGGWRSSFDPWGQGTLVTVSS
VL: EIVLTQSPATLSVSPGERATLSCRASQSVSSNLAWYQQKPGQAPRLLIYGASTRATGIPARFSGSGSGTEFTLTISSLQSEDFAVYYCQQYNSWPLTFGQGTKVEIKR

binding result [1]: no binding (tested: 1000 nM) | binding result [2]: no binding (tested: 1000 nM)
B9: 014S-G02 (Fab, V domains shown)
VH: QVQLVQSGAEVKKPGASVKVSCKASGYTFTSYYMNWVRQAPGQGLEWMGIISPSGGSTSYAQKFQGRVTMTRDTSTSTVYMELSSLRSEDTAVYYCARWGDYGDLYYFDYWGQGTLVTVSS
VL: B10 VL with Y32A, A51T, N53T, L55Q, G56S, T91V, Y92N, T94Y, W96P, V104L

binding result [1]: no binding (tested: 1000 nM) | binding result [2]: no binding (tested: 1000 nM)
B13: 004S-F10 (Fab, V domains shown)
VH: EVQLVESGGGLVQPGGSLRLSCAASGFTFSDHYMSWVRQAPGKGLEWVALVGYDGSQQFYGESVKGRFTISRDNSKNTLYLQMNSLRAEDTAVYYCNTGIPMLYWGQGTLVTVSS
VL: not shown

binding result [1]: no binding (tested: 1000 nM) | binding result [2]: no binding (tested: 1000 nM)
B14: 005S-E09 (Fab, V domains shown)
VH: EVQLVQSGGGLVQPGGSLRLSCAASGFNLRRYNMNWVRQAPGKGLEWVSRISNSGSLVYYADSVKGRFTISRDNSKNTLYLQMNSLRAEDTAVYYCARDADSSGYYRYDAFDIWGQGTMVTVSS
VL: B15 VL with R31S, G50D, T53N, S92N, P95L, I96Y, R103K, L104V

binding result [1]: no binding (tested: 1000 nM) | binding result [2]: no binding (tested: 1000 nM)
B16: 005S-B11 (Fab, V domains shown)
VH: QVQLVQSGAEVKKPGASVKVSCKASGYTFTSYDINWVRQAPGQGLEWMGGFDPEDGETIYAQKFQGRVTMTRDTSTSTVYMELSSLRSEDTAVYYCAKAGDWGLYGMDVWGQGTMVTVSS
VL: DIQMTQSPSSLSASVGDRVTITCRASQSISRWLAWYQQKPGKAPKLLIYAASSLQSGVPSRFSGSGSGTDFTLTISSLQPEDFATYYCQQTNTFPFTFGPGTKVDIKR

binding result [1]: no binding (tested: 1000 nM) | binding result [2]: no binding (tested: 1000 nM)
B17: 005S-B07 (Fab, V domains shown)
VH: QVQLVQSGAEVKKPGASVKVSCKASGFTFTSSAVQWVRQAPGQGLEWMGWMNPNSGNTGYAQKFQGRVTMTRDTSTSTVYMELSSLRSEDTAVYYCARGRGQQWLTGYYGMDVWGQGTTVTVSS
VL: B16 VL with S28G, R31S, W32A, A50G, S53T, Q89L, T91D, N92Y, T93N, F94Y

binding result [1]: no binding (tested: 1000 nM) | binding result [2]: no binding (tested: 1000 nM)
B18: 005S-E12 (Fab, V domains shown)
VH: QVQLVQSGAEVKKPGASVKVSCKASGYIFTDYYMHWVRQAPGQGLEWMGVIFPVYPTPDYAQKFQGRVTMTRDTSTSTVYMELSSLRSEDTAVYYCARGGSTGYYGMDVWGQGTTVTVSS
VL: B16 VL with I29V, S30G, L33M, T91A
